In publication PMC4046141, “Exploring the evolutionary route of the acquisition of betaine aldehyde dehydrogenase activity by plant ALDH10 enzymes: implications for the synthesis of the osmoprotectant glycine betaine” (BMC Plant Biology, 2014):

Legend:
purified protein = substrate: C[N+](C)(C)CC=O; experiment: purified protein; conditions: 0.2 mM NAD+, 50 mM HEPES-KOH pH 8.0, 0.1 mM EDTA, 30 °C, apparent
[1] = substrate: NCCC=O; experiment: spectrophotometric initial velocity, fit to substrate-inhibition equation; format: biochemical, Spinacia oleracea; conditions: 0.2 mM NAD+, 50 mM HEPES-KOH pH 8.0, 0.1 mM EDTA, 30 °C, apparent
Description: spectrophotometric initial velocity, fit to substrate-inhibition equation on SoBADH

[2] = substrate: NC(=O)c1ccc[n+]([C@@H]2O[C@H](COP(=O)(O)OP(=O)(O)OC[C@H]3O[C@@H](n4cnc5c(N)ncnc54)[C@H](O)[C@@H]3O)[C@@H](O)[C@H]2O)c1; experiment: spectrophotometric initial velocity, Michaelis-Menten fit; format: biochemical, Spinacia oleracea; conditions: fixed BAL at least 10x its Km, 50 mM HEPES-KOH pH 8.0, 0.1 mM EDTA, 30 °C, apparent, varied: cofactor
Description: spectrophotometric initial velocity, Michaelis-Menten fit on SoBADH

Protein	Km (purified protein)	kcat (purified protein)	kcat/Km (purified protein)	Km [1]	kcat [1]	kcat/Km [1]	Km [2]	kcat [2]	kcat/Km [2]
SoBADH (Spinacia oleracea; A441F) (protein, native homodimer) MAFPIPARQLFIDGEWREPIKKNRIPVINPSTEEIIGDIPAATAEDVEVAVVAARRAFRRNNWSATSGAHRATYLRAIAAKITEKKDHFVKLETIDSGKPFDEAVLDIDDVASCFEYFAGQAEALDGKQKAPVTLPMERFKSHVLRQPLGVVGLISPWNYPLLMATWKIAPALAAGCTAVLKPSELASVTCLEFGEVCNEVGLPPGVLNILTGLGPDAGAPLVSHPDVDKIAFTGSSATGSKVMASAAQLVKPVTLELGGKSPIVVFEDVDIDKVVEWTIFGCFWTNGQICSATSRLLVHESIAAEFVDKLVKWTKNIKISDPFEEGCRLGPVISKGQYDKIMKFISTAKSEGATILYGGSRPEHLKKGYYIEPTIVTDISTSMQIWKEEVFGPVLCVKTFSSEDEAIALANDTEYGLAAAVFSNDLERCERITKALEVGFVWVNCSQPCFVQAPWGGIKRSGFGRELGEWGIQNYLNIKQVTQDISDEPWGWYKSP	605 ± 26 µM	0.29 s⁻¹	480 M⁻¹ s⁻¹	3.7 ± 0.0 µM	0.34 ± 0.04 s⁻¹	92000 ± 11000 M⁻¹ s⁻¹	–	–	–
SoBADH (Spinacia oleracea) (protein, native homodimer) MAFPIPARQLFIDGEWREPIKKNRIPVINPSTEEIIGDIPAATAEDVEVAVVAARRAFRRNNWSATSGAHRATYLRAIAAKITEKKDHFVKLETIDSGKPFDEAVLDIDDVASCFEYFAGQAEALDGKQKAPVTLPMERFKSHVLRQPLGVVGLISPWNYPLLMATWKIAPALAAGCTAVLKPSELASVTCLEFGEVCNEVGLPPGVLNILTGLGPDAGAPLVSHPDVDKIAFTGSSATGSKVMASAAQLVKPVTLELGGKSPIVVFEDVDIDKVVEWTIFGCFWTNGQICSATSRLLVHESIAAEFVDKLVKWTKNIKISDPFEEGCRLGPVISKGQYDKIMKFISTAKSEGATILYGGSRPEHLKKGYYIEPTIVTDISTSMQIWKEEVFGPVLCVKTFSSEDEAIALANDTEYGLAAAVFSNDLERCERITKALEVGAVWVNCSQPCFVQAPWGGIKRSGFGRELGEWGIQNYLNIKQVTQDISDEPWGWYKSP	98 ± 15 µM	3.36 s⁻¹	35000 M⁻¹ s⁻¹	3.9 ± 0.1 µM	0.99 ± 0.04 s⁻¹	256000 ± 5000 M⁻¹ s⁻¹	22 ± 2 µM	4.25 ± 0.16 s⁻¹	195000 ± 8000 M⁻¹ s⁻¹
SoBADH (Spinacia oleracea; A441T) (protein, native homodimer) MAFPIPARQLFIDGEWREPIKKNRIPVINPSTEEIIGDIPAATAEDVEVAVVAARRAFRRNNWSATSGAHRATYLRAIAAKITEKKDHFVKLETIDSGKPFDEAVLDIDDVASCFEYFAGQAEALDGKQKAPVTLPMERFKSHVLRQPLGVVGLISPWNYPLLMATWKIAPALAAGCTAVLKPSELASVTCLEFGEVCNEVGLPPGVLNILTGLGPDAGAPLVSHPDVDKIAFTGSSATGSKVMASAAQLVKPVTLELGGKSPIVVFEDVDIDKVVEWTIFGCFWTNGQICSATSRLLVHESIAAEFVDKLVKWTKNIKISDPFEEGCRLGPVISKGQYDKIMKFISTAKSEGATILYGGSRPEHLKKGYYIEPTIVTDISTSMQIWKEEVFGPVLCVKTFSSEDEAIALANDTEYGLAAAVFSNDLERCERITKALEVGTVWVNCSQPCFVQAPWGGIKRSGFGRELGEWGIQNYLNIKQVTQDISDEPWGWYKSP	180 ± 6 µM	2.64 s⁻¹	15000 M⁻¹ s⁻¹	4.6 ± 0.5 µM	1.5 ± 0.12 s⁻¹	326000 ± 13000 M⁻¹ s⁻¹	–	–	–
SoBADH (Spinacia oleracea; A441S) (protein, native homodimer) MAFPIPARQLFIDGEWREPIKKNRIPVINPSTEEIIGDIPAATAEDVEVAVVAARRAFRRNNWSATSGAHRATYLRAIAAKITEKKDHFVKLETIDSGKPFDEAVLDIDDVASCFEYFAGQAEALDGKQKAPVTLPMERFKSHVLRQPLGVVGLISPWNYPLLMATWKIAPALAAGCTAVLKPSELASVTCLEFGEVCNEVGLPPGVLNILTGLGPDAGAPLVSHPDVDKIAFTGSSATGSKVMASAAQLVKPVTLELGGKSPIVVFEDVDIDKVVEWTIFGCFWTNGQICSATSRLLVHESIAAEFVDKLVKWTKNIKISDPFEEGCRLGPVISKGQYDKIMKFISTAKSEGATILYGGSRPEHLKKGYYIEPTIVTDISTSMQIWKEEVFGPVLCVKTFSSEDEAIALANDTEYGLAAAVFSNDLERCERITKALEVGSVWVNCSQPCFVQAPWGGIKRSGFGRELGEWGIQNYLNIKQVTQDISDEPWGWYKSP	119 ± 8 µM	3.29 s⁻¹	28000 M⁻¹ s⁻¹	2.0 ± 0.5 µM	1.12 s⁻¹	550000 ± 142000 M⁻¹ s⁻¹	29 ± 3 µM	3.27 ± 0.18 s⁻¹	114000 ± 20000 M⁻¹ s⁻¹
SoBADH (Spinacia oleracea; A441V) (protein, native homodimer) MAFPIPARQLFIDGEWREPIKKNRIPVINPSTEEIIGDIPAATAEDVEVAVVAARRAFRRNNWSATSGAHRATYLRAIAAKITEKKDHFVKLETIDSGKPFDEAVLDIDDVASCFEYFAGQAEALDGKQKAPVTLPMERFKSHVLRQPLGVVGLISPWNYPLLMATWKIAPALAAGCTAVLKPSELASVTCLEFGEVCNEVGLPPGVLNILTGLGPDAGAPLVSHPDVDKIAFTGSSATGSKVMASAAQLVKPVTLELGGKSPIVVFEDVDIDKVVEWTIFGCFWTNGQICSATSRLLVHESIAAEFVDKLVKWTKNIKISDPFEEGCRLGPVISKGQYDKIMKFISTAKSEGATILYGGSRPEHLKKGYYIEPTIVTDISTSMQIWKEEVFGPVLCVKTFSSEDEAIALANDTEYGLAAAVFSNDLERCERITKALEVGVVWVNCSQPCFVQAPWGGIKRSGFGRELGEWGIQNYLNIKQVTQDISDEPWGWYKSP	512 ± 79 µM	0.54 s⁻¹	1100 M⁻¹ s⁻¹	1.1 ± 0.3 µM	0.52 ± 0.1 s⁻¹	473000 ± 216000 M⁻¹ s⁻¹	6.4 ± 0.5 µM	0.51 s⁻¹	80000 ± 5000 M⁻¹ s⁻¹
